Data from the supplement of paper PMC9112550, “Optimization of the antimicrobial peptide Bac7 by deep mutational scanning” (BMC Biology, 2022).
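Further: peptides expressed intracellularly from a pBAD plasmid library in pooled LB shake-flask culture, induced with 0.3% L-arabinose, DNA abundance read by NGS, three biological replicates, DESeq2 with apeglm shrinkage.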

These sequences were tested on Escherichia coli TOP10 (assay: shrunken log2 fold change of peptide-encoding DNA abundance (4.5 h post-induction vs induction); higher = less antimicrobial activity (less host growth inhibition)). Details: time post-induction: 4.5 h; library: site-saturation at positions 5, 18, 19, 20.
With RRIRKRPPRLPRPRPRPQVQPRP the “shrunken log2 fold change” value was 0.131. For RRIRMRPPRLPRPRPRPMRMPRP, the “shrunken log2 fold change” value was 0.759. In the case of RRIRCRPPRLPRPRPRPFHEPRP, the “shrunken log2 fold change” value is reported as -0.917. With RRIRNRPPRLPRPRPRPALYPRP the “shrunken log2 fold change” value was -0.125. For RRIRYRPPRLPRPRPRPPAIPRP, the “shrunken log2 fold change” value was -0.319. In the case of RRIRVRPPRLPRPRPRPRMWPRP, the “shrunken log2 fold change” value is reported as 0.271. RRIRFRPPRLPRPRPRPHKLPRP was tested, and the “shrunken log2 fold change” value was -0.377. In the case of RRIRHRPPRLPRPRPRPLWLPRP, the “shrunken log2 fold change” value is reported as 0.0573. RRIRHRPPRLPRPRPRPGMSPRP was tested, and the “shrunken log2 fold change” value was -0.0653. RRIRNRPPRLPRPRPRPVERPRP was tested, and the “shrunken log2 fold change” value was 0.265. RRIRDRPPRLPRPRPRPGFEPRP was tested, and the “shrunken log2 fold change” value was 0.175. In the case of RRIRYRPPRLPRPRPRPQWNPRP, the “shrunken log2 fold change” value is reported as -0.108. In the case of RRIRHRPPRLPRPRPRPVVTPRP, the “shrunken log2 fold change” value is reported as -0.0256. In the case of RRIRKRPPRLPRPRPRPNYFPRP, the “shrunken log2 fold change” value is reported as -0.303. With RRIRKRPPRLPRPRPRPPPEPRP the “shrunken log2 fold change” value was 1.32. With RRIRVRPPRLPRPRPRPGMFPRP the “shrunken log2 fold change” value was -0.132. For RRIRERPPRLPRPRPRPRPHPRP, the “shrunken log2 fold change” value was 0.791. With RRIRFRPPRLPRPRPRPHKMPRP the “shrunken log2 fold change” value was -0.154. With RRIRRRPPRLPRPRPRPVRPPRP the “shrunken log2 fold change” value was 0.512. RRIRFRPPRLPRPRPRPSQRPRP was tested, and the “shrunken log2 fold change” value was 0.384. In the case of RRIRWRPPRLPRPRPRPFAPPRP, the “shrunken log2 fold change” value is reported as 0.505. In the case of RRIRSRPPRLPRPRPRPGWKPRP, the “shrunken log2 fold change” value is reported as 0.0342. RRIRLRPPRLPRPRPRPAPHPRP was tested, and the “shrunken log2 fold change” value was 0.514. With RRIRFRPPRLPRPRPRPQKLPRP the “shrunken log2 fold change” value was -0.211. With RRIRVRPPRLPRPRPRPWGMPRP the “shrunken log2 fold change” value was 0.0336. For RRIRQRPPRLPRPRPRPMRMPRP, the “shrunken log2 fold change” value was 0.0593. With RRIRARPPRLPRPRPRPTAIPRP the “shrunken log2 fold change” value was 0.977. In the case of RRIRGRPPRLPRPRPRPNNEPRP, the “shrunken log2 fold change” value is reported as 0.306. With RRIRARPPRLPRPRPRPNPNPRP the “shrunken log2 fold change” value was 0.187. With RRIRNRPPRLPRPRPRPYWMPRP the “shrunken log2 fold change” value was -0.26. In the case of RRIRNRPPRLPRPRPRPGQYPRP, the “shrunken log2 fold change” value is reported as 0.0262. For RRIRHRPPRLPRPRPRPNFDPRP, the “shrunken log2 fold change” value was -0.0783. For RRIRMRPPRLPRPRPRPWDEPRP, the “shrunken log2 fold change” value was 0.391. For RRIRVRPPRLPRPRPRPFKCPRP, the “shrunken log2 fold change” value was -0.0453. In the case of RRIRCRPPRLPRPRPRPLQSPRP, the “shrunken log2 fold change” value is reported as 0.113. For RRIRARPPRLPRPRPRPQECPRP, the “shrunken log2 fold change” value was -0.0292. With RRIRMRPPRLPRPRPRPCQNPRP the “shrunken log2 fold change” value was 0.0761. For RRIRWRPPRLPRPRPRPYLYPRP, the “shrunken log2 fold change” value was -0.216. RRIRNRPPRLPRPRPRPIDDPRP was tested, and the “shrunken log2 fold change” value was 0.00709. For RRIRPRPPRLPRPRPRPKCLPRP, the “shrunken log2 fold change” value was -0.0739. With RRIRYRPPRLPRPRPRPRFAPRP the “shrunken log2 fold change” value was -0.152. With RRIRPRPPRLPRPRPRPLDTPRP the “shrunken log2 fold change” value was 1. For RRIRNRPPRLPRPRPRPWIPPRP, the “shrunken log2 fold change” value was -0.536. For RRIRMRPPRLPRPRPRPSLGPRP, the “shrunken log2 fold change” value was 0.193. In the case of RRIRDRPPRLPRPRPRPINFPRP, the “shrunken log2 fold change” value is reported as -0.0167. With RRIRLRPPRLPRPRPRPKIGPRP the “shrunken log2 fold change” value was -0.251. In the case of RRIRFRPPRLPRPRPRPWGLPRP, the “shrunken log2 fold change” value is reported as -0.168. For RRIRHRPPRLPRPRPRPKMSPRP, the “shrunken log2 fold change” value was 0.166. For RRIRNRPPRLPRPRPRPEPRPRP, the “shrunken log2 fold change” value was 0.635. With RRIRRRPPRLPRPRPRPENDPRP the “shrunken log2 fold change” value was 0.785. In the case of RRIRHRPPRLPRPRPRPVPAPRP, the “shrunken log2 fold change” value is reported as -0.0665. In the case of RRIRTRPPRLPRPRPRPNEFPRP, the “shrunken log2 fold change” value is reported as 0.0177. For RRIRERPPRLPRPRPRPLQSPRP, the “shrunken log2 fold change” value was -0.306. For RRIRERPPRLPRPRPRPWLQPRP, the “shrunken log2 fold change” value was 0.0293. For RRIRARPPRLPRPRPRPHGQPRP, the “shrunken log2 fold change” value was 0.0639. In the case of RRIRSRPPRLPRPRPRPSMAPRP, the “shrunken log2 fold change” value is reported as 0.223. For RRIRPRPPRLPRPRPRPTMHPRP, the “shrunken log2 fold change” value was 0.0766. For RRIRVRPPRLPRPRPRPFFMPRP, the “shrunken log2 fold change” value was -0.339. RRIRCRPPRLPRPRPRPRCGPRP was tested, and the “shrunken log2 fold change” value was 0.191. For RRIRSRPPRLPRPRPRPLFEPRP, the “shrunken log2 fold change” value was -0.0159. For RRIRKRPPRLPRPRPRPRLTPRP, the “shrunken log2 fold change” value was 0.501. In the case of RRIRHRPPRLPRPRPRPGVCPRP, the “shrunken log2 fold change” value is reported as -0.263. For RRIRKRPPRLPRPRPRPTDCPRP, the “shrunken log2 fold change” value was -0.0167. With RRIRFRPPRLPRPRPRPCEKPRP the “shrunken log2 fold change” value was 0.00738. RRIRARPPRLPRPRPRPWRHPRP was tested, and the “shrunken log2 fold change” value was 0.333. With RRIRFRPPRLPRPRPRPIRWPRP the “shrunken log2 fold change” value was 0.0239. For RRIRDRPPRLPRPRPRPLYIPRP, the “shrunken log2 fold change” value was -0.266. For RRIRYRPPRLPRPRPRPWLVPRP, the “shrunken log2 fold change” value was -0.096. With RRIRDRPPRLPRPRPRPEQPPRP the “shrunken log2 fold change” value was -0.0458. RRIRCRPPRLPRPRPRPFQIPRP was tested, and the “shrunken log2 fold change” value was 0.00581. With RRIRIRPPRLPRPRPRPNIDPRP the “shrunken log2 fold change” value was -0.619. In the case of RRIRTRPPRLPRPRPRPDVWPRP, the “shrunken log2 fold change” value is reported as 0.33. In the case of RRIRPRPPRLPRPRPRPTDCPRP, the “shrunken log2 fold change” value is reported as 0.165. RRIRKRPPRLPRPRPRPAWRPRP was tested, and the “shrunken log2 fold change” value was 1.18. In the case of RRIRSRPPRLPRPRPRPLDHPRP, the “shrunken log2 fold change” value is reported as 0.0458. RRIRWRPPRLPRPRPRPPWNPRP was tested, and the “shrunken log2 fold change” value was 0.279. For RRIRERPPRLPRPRPRPSHMPRP, the “shrunken log2 fold change” value was -0.431. For RRIRARPPRLPRPRPRPLLEPRP, the “shrunken log2 fold change” value was 0.834. For RRIRRRPPRLPRPRPRPWSFPRP, the “shrunken log2 fold change” value was 0.0517. With RRIRFRPPRLPRPRPRPHWLPRP the “shrunken log2 fold change” value was -0.066. RRIRDRPPRLPRPRPRPYCLPRP was tested, and the “shrunken log2 fold change” value was -0.0759. RRIRNRPPRLPRPRPRPGFEPRP was tested, and the “shrunken log2 fold change” value was 0.123. In the case of RRIRQRPPRLPRPRPRPGGNPRP, the “shrunken log2 fold change” value is reported as -0.0842. For RRIRCRPPRLPRPRPRPQKDPRP, the “shrunken log2 fold change” value was -0.202. In the case of RRIRQRPPRLPRPRPRPQNIPRP, the “shrunken log2 fold change” value is reported as -0.882. In the case of RRIRLRPPRLPRPRPRPSQEPRP, the “shrunken log2 fold change” value is reported as -0.0518. RRIRYRPPRLPRPRPRPVAWPRP was tested, and the “shrunken log2 fold change” value was 0.00214. In the case of RRIRVRPPRLPRPRPRPKQLPRP, the “shrunken log2 fold change” value is reported as 0.0267. In the case of RRIRERPPRLPRPRPRPDKDPRP, the “shrunken log2 fold change” value is reported as -0.433. In the case of RRIRSRPPRLPRPRPRPKKSPRP, the “shrunken log2 fold change” value is reported as -0.0117. With RRIRIRPPRLPRPRPRPQFGPRP the “shrunken log2 fold change” value was 1.74. In the case of RRIRHRPPRLPRPRPRPHVAPRP, the “shrunken log2 fold change” value is reported as -0.208. For RRIRIRPPRLPRPRPRPLKQPRP, the “shrunken log2 fold change” value was 0.0465. RRIRYRPPRLPRPRPRPVHSPRP was tested, and the “shrunken log2 fold change” value was -0.155. With RRIRKRPPRLPRPRPRPDSHPRP the “shrunken log2 fold change” value was -0.427. RRIRARPPRLPRPRPRPLFSPRP was tested, and the “shrunken log2 fold change” value was -0.124. For RRIRIRPPRLPRPRPRPNCDPRP, the “shrunken log2 fold change” value was -0.486. With RRIRYRPPRLPRPRPRPRPTPRP the “shrunken log2 fold change” value was 0.363. With RRIRARPPRLPRPRPRPLRKPRP the “shrunken log2 fold change” value was 0.62. With RRIRHRPPRLPRPRPRPMSSPRP the “shrunken log2 fold change” value was -0.225. With RRIRSRPPRLPRPRPRPNILPRP the “shrunken log2 fold change” value was -0.61. With RRIRYRPPRLPRPRPRPPKAPRP the “shrunken log2 fold change” value was -0.0334. In the case of RRIRCRPPRLPRPRPRPTCYPRP, the “shrunken log2 fold change” value is reported as -0.154. In the case of RRIRYRPPRLPRPRPRPKCLPRP, the “shrunken log2 fold change” value is reported as -0.245. With RRIRERPPRLPRPRPRPHTTPRP the “shrunken log2 fold change” value was -0.205. RRIRNRPPRLPRPRPRPIPTPRP was tested, and the “shrunken log2 fold change” value was -0.0847. In the case of RRIRKRPPRLPRPRPRPMVYPRP, the “shrunken log2 fold change” value is reported as -0.0451. For RRIRPRPPRLPRPRPRPHDSPRP, the “shrunken log2 fold change” value was -0.134. With RRIRRRPPRLPRPRPRPTQNPRP the “shrunken log2 fold change” value was 1.03. RRIRNRPPRLPRPRPRPHFEPRP was tested, and the “shrunken log2 fold change” value was 0.066. RRIRKRPPRLPRPRPRPEHFPRP was tested, and the “shrunken log2 fold change” value was 0.0394. In the case of RRIRSRPPRLPRPRPRPDNIPRP, the “shrunken log2 fold change” value is reported as -0.347. With RRIRTRPPRLPRPRPRPCVQPRP the “shrunken log2 fold change” value was 0.0274. RRIRQRPPRLPRPRPRPVDDPRP was tested, and the “shrunken log2 fold change” value was -0.0578. RRIRARPPRLPRPRPRPGIPPRP was tested, and the “shrunken log2 fold change” value was 0.162. RRIRCRPPRLPRPRPRPNSNPRP was tested, and the “shrunken log2 fold change” value was -0.698. In the case of RRIRQRPPRLPRPRPRPEDNPRP, the “shrunken log2 fold change” value is reported as -0.0442. In the case of RRIRPRPPRLPRPRPRPGDVPRP, the “shrunken log2 fold change” value is reported as 0.145. In the case of RRIRDRPPRLPRPRPRPVHPPRP, the “shrunken log2 fold change” value is reported as 0.184. For RRIRLRPPRLPRPRPRPNYCPRP, the “shrunken log2 fold change” value was -0.31. In the case of RRIRIRPPRLPRPRPRPCIFPRP, the “shrunken log2 fold change” value is reported as -0.402. With RRIRWRPPRLPRPRPRPDPPPRP the “shrunken log2 fold change” value was 0.575. RRIRFRPPRLPRPRPRPDYCPRP was tested, and the “shrunken log2 fold change” value was -0.127. For RRIRSRPPRLPRPRPRPRFFPRP, the “shrunken log2 fold change” value was 0.108. In the case of RRIRNRPPRLPRPRPRPGKTPRP, the “shrunken log2 fold change” value is reported as 0.0837.
